Test results published in US20060177894A1 (published 2006).

Legend:
[1] = target: T1, rat lutropin receptor (LHR) (rat, UniProt P16235 27-700); assay: inhibition of 125I-hCG binding to CHO cells with rat LHR; from IC50; native β-subunit analog
T1 construct: whole, on cells; also called LH receptor

[2] = target: T1, rat lutropin receptor (LHR); assay: cell-based or functional assay
[3] = target: T1, rat lutropin receptor (LHR); assay: inhibition of 125I-hCG binding to CHO cells with rat LHR; from IC50; acid-stable hCGβ-S138C analog

T1 sequence (P16235 27-700): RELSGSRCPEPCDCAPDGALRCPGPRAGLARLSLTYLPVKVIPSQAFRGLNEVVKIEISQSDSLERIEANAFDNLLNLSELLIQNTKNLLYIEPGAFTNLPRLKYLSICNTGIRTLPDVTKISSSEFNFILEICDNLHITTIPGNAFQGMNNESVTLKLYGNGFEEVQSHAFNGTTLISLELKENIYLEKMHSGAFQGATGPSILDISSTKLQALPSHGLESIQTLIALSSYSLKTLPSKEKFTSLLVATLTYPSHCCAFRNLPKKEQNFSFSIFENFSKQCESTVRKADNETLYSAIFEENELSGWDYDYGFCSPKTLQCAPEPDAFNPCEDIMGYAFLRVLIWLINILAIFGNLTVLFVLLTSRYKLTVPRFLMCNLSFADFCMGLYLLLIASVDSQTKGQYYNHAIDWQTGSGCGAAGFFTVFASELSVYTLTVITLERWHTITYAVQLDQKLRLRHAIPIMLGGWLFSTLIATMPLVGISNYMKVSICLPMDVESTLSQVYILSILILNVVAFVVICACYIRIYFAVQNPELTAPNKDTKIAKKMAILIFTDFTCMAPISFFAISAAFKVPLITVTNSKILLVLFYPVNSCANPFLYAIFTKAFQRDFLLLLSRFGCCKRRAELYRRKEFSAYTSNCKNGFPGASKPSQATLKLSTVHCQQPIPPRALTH

Binder | Receptor-Binding potency (percent hCG) [1] | Signal Transduction potency (cAMP accumulation) [2] | Receptor-Binding potency (percent hCG) [3] | Signal transduction potency (cAMP accumulation), acid-stable analog [2]
hCG-αK44A (ligand, mature; heterodimer from COS-7 medium; also called αK44A+hCGβ) chain 1: not shown chain 2: SKEPLRPRCRPINATLAVEKEGCPVCITVNTTICAGYCPTMTRVLQGVLPALPQVVCNYRDVRFESIRLPGCPRGVNPVVSYAVALSCQCALCRRSTTDCGGPKDHPLTCDDPRFQDSSSSKAPPPSLPSPSRLPGPSDTPILPQ | 84 % of hCG | – | – | –
αK91C + β (ligand, mature; heterodimer from COS-7 medium; also called hCG-αK91C) chain 1: not shown chain 2: SKEPLRPRCRPINATLAVEKEGCPVCITVNTTICAGYCPTMTRVLQGVLPALPQVVCNYRDVRFESIRLPGCPRGVNPVVSYAVALSCQCALCRRSTTDCGGPKDHPLTCDDPRFQDSSSSKAPPPSLPSPSRLPGPSDTPILPQ | 41 % of hCG | 56 % of hCG | – | –
αK45C + β (ligand, mature; heterodimer from COS-7 medium; also called hCG-αK45C) chain 1: not shown chain 2: SKEPLRPRCRPINATLAVEKEGCPVCITVNTTICAGYCPTMTRVLQGVLPALPQVVCNYRDVRFESIRLPGCPRGVNPVVSYAVALSCQCALCRRSTTDCGGPKDHPLTCDDPRFQDSSSSKAPPPSLPSPSRLPGPSDTPILPQ | 93 % of hCG | 91 % of hCG | – | –
αY88C + β (ligand, mature; heterodimer from COS-7 medium; also called hCG-αY88C) chain 1: not shown chain 2: SKEPLRPRCRPINATLAVEKEGCPVCITVNTTICAGYCPTMTRVLQGVLPALPQVVCNYRDVRFESIRLPGCPRGVNPVVSYAVALSCQCALCRRSTTDCGGPKDHPLTCDDPRFQDSSSSKAPPPSLPSPSRLPGPSDTPILPQ | 141 % of hCG | 74 % of hCG | – | –
αH90C + β (ligand, mature; heterodimer from COS-7 medium; also called hCG-αH90C) chain 1: not shown chain 2: SKEPLRPRCRPINATLAVEKEGCPVCITVNTTICAGYCPTMTRVLQGVLPALPQVVCNYRDVRFESIRLPGCPRGVNPVVSYAVALSCQCALCRRSTTDCGGPKDHPLTCDDPRFQDSSSSKAPPPSLPSPSRLPGPSDTPILPQ | 30 % of hCG | 65 % of hCG | – | –
αK44C + β (ligand, mature; heterodimer from COS-7 medium; also called hCG-αK44C) chain 1: not shown chain 2: SKEPLRPRCRPINATLAVEKEGCPVCITVNTTICAGYCPTMTRVLQGVLPALPQVVCNYRDVRFESIRLPGCPRGVNPVVSYAVALSCQCALCRRSTTDCGGPKDHPLTCDDPRFQDSSSSKAPPPSLPSPSRLPGPSDTPILPQ | 66 % of hCG | 97 % of hCG | – | –
αT86C + β (ligand, mature; heterodimer from COS-7 medium; also called hCG-αT86C) chain 1: not shown chain 2: SKEPLRPRCRPINATLAVEKEGCPVCITVNTTICAGYCPTMTRVLQGVLPALPQVVCNYRDVRFESIRLPGCPRGVNPVVSYAVALSCQCALCRRSTTDCGGPKDHPLTCDDPRFQDSSSSKAPPPSLPSPSRLPGPSDTPILPQ | 95 % of hCG | 444 % of hCG | – | –
αS64C/hCG-βS138C (ligand, mature; disulfide αCys64-βCys138; also called hCGβS138C+αS64C) chain 1: not shown chain 2: SKEPLRPRCRPINATLAVEKEGCPVCITVNTTICAGYCPTMTRVLQGVLPALPQVVCNYRDVRFESIRLPGCPRGVNPVVSYAVALSCQCALCRRSTTDCGGPKDHPLTCDDPRFQDSSSSKAPPPSLPSPSRLPGPCDTPILPQ | – | – | 89 % of hCG | –
αL48C + β (ligand, mature; heterodimer from COS-7 medium; also called hCG-αL48C) chain 1: not shown chain 2: SKEPLRPRCRPINATLAVEKEGCPVCITVNTTICAGYCPTMTRVLQGVLPALPQVVCNYRDVRFESIRLPGCPRGVNPVVSYAVALSCQCALCRRSTTDCGGPKDHPLTCDDPRFQDSSSSKAPPPSLPSPSRLPGPSDTPILPQ | 60 % of hCG | 147 % of hCG | – | –
αT46C + β (ligand, mature; heterodimer from COS-7 medium; also called hCG-αT46C) chain 1: not shown chain 2: SKEPLRPRCRPINATLAVEKEGCPVCITVNTTICAGYCPTMTRVLQGVLPALPQVVCNYRDVRFESIRLPGCPRGVNPVVSYAVALSCQCALCRRSTTDCGGPKDHPLTCDDPRFQDSSSSKAPPPSLPSPSRLPGPSDTPILPQ | 38 % of hCG | 56 % of hCG | – | –
hCG-αK44E, K45Q (ligand, Glycosylated heterodimer secreted by COS-7 cells; no engineered intersubunit disulfide., heterodimer from COS-7 medium; also called αK44E, K45Q+hCGβ) alpha: not shown beta: SKEPLRPRCRPINATLAVEKEGCPVCITVNTTICAGYCPTMTRVLQGVLPALPQVVCNYRDVRFESIRLPGCPRGVNPVVSYAVALSCQCALCRRSTTDCGGPKDHPLTCDDPRFQDSSSSKAPPPSLPSPSRLPGPSDTPILPQ | 58 % of hCG | 42 % of hCG | – | –
αK91C + hCGβ-S138C (ligand, mature; disulfide αCys91-βCys138) chain 1: not shown chain 2: SKEPLRPRCRPINATLAVEKEGCPVCITVNTTICAGYCPTMTRVLQGVLPALPQVVCNYRDVRFESIRLPGCPRGVNPVVSYAVALSCQCALCRRSTTDCGGPKDHPLTCDDPRFQDSSSSKAPPPSLPSPSRLPGPCDTPILPQ | – | – | 2.2 % of hCG | –
αS43C + β (ligand, mature; heterodimer from COS-7 medium; also called hCG-αS43C) chain 1: not shown chain 2: SKEPLRPRCRPINATLAVEKEGCPVCITVNTTICAGYCPTMTRVLQGVLPALPQVVCNYRDVRFESIRLPGCPRGVNPVVSYAVALSCQCALCRRSTTDCGGPKDHPLTCDDPRFQDSSSSKAPPPSLPSPSRLPGPSDTPILPQ | 35 % of hCG | 74 % of hCG | – | –
αR42C + β (ligand, mature; heterodimer from COS-7 medium; also called hCG-αR42C) chain 1: not shown chain 2: SKEPLRPRCRPINATLAVEKEGCPVCITVNTTICAGYCPTMTRVLQGVLPALPQVVCNYRDVRFESIRLPGCPRGVNPVVSYAVALSCQCALCRRSTTDCGGPKDHPLTCDDPRFQDSSSSKAPPPSLPSPSRLPGPSDTPILPQ | 113 % of hCG | 103 % of hCG | – | –
αS92C + β (ligand, mature; heterodimer from COS-7 medium; also called hCG-αS92C) chain 1: not shown chain 2: SKEPLRPRCRPINATLAVEKEGCPVCITVNTTICAGYCPTMTRVLQGVLPALPQVVCNYRDVRFESIRLPGCPRGVNPVVSYAVALSCQCALCRRSTTDCGGPKDHPLTCDDPRFQDSSSSKAPPPSLPSPSRLPGPSDTPILPQ | 100 % of hCG | 38 % of hCG | – | –
αQ50C + β (ligand, mature; heterodimer from COS-7 medium; also called hCG-αQ50C) chain 1: not shown chain 2: SKEPLRPRCRPINATLAVEKEGCPVCITVNTTICAGYCPTMTRVLQGVLPALPQVVCNYRDVRFESIRLPGCPRGVNPVVSYAVALSCQCALCRRSTTDCGGPKDHPLTCDDPRFQDSSSSKAPPPSLPSPSRLPGPSDTPILPQ | 81 % of hCG | 216 % of hCG | – | –
αQ50C + hCGβ-S138C (ligand) chain 1: not shown chain 2: SKEPLRPRCRPINATLAVEKEGCPVCITVNTTICAGYCPTMTRVLQGVLPALPQVVCNYRDVRFESIRLPGCPRGVNPVVSYAVALSCQCALCRRSTTDCGGPKDHPLTCDDPRFQDSSSSKAPPPSLPSPSRLPGPCDTPILPQ | – | – | – | 308 % of hCG
αM47C + β (ligand, mature; heterodimer from COS-7 medium; also called hCG-αM47C) chain 1: not shown chain 2: SKEPLRPRCRPINATLAVEKEGCPVCITVNTTICAGYCPTMTRVLQGVLPALPQVVCNYRDVRFESIRLPGCPRGVNPVVSYAVALSCQCALCRRSTTDCGGPKDHPLTCDDPRFQDSSSSKAPPPSLPSPSRLPGPSDTPILPQ | 8.7 % of hCG | 23 % of hCG | – | –
αH90C + hCGβ-S138C (ligand, mature; disulfide αCys90-βCys138) chain 1: not shown chain 2: SKEPLRPRCRPINATLAVEKEGCPVCITVNTTICAGYCPTMTRVLQGVLPALPQVVCNYRDVRFESIRLPGCPRGVNPVVSYAVALSCQCALCRRSTTDCGGPKDHPLTCDDPRFQDSSSSKAPPPSLPSPSRLPGPCDTPILPQ | – | – | 3.1 % of hCG | 1 % of hCG
αV53C + β (ligand, mature; heterodimer from COS-7 medium; also called hCG-αV53C) chain 1: not shown chain 2: SKEPLRPRCRPINATLAVEKEGCPVCITVNTTICAGYCPTMTRVLQGVLPALPQVVCNYRDVRFESIRLPGCPRGVNPVVSYAVALSCQCALCRRSTTDCGGPKDHPLTCDDPRFQDSSSSKAPPPSLPSPSRLPGPSDTPILPQ | 149 % of hCG | – | – | –
hCG-αM47A (ligand, mature; heterodimer from COS-7 medium) chain 1: not shown chain 2: SKEPLRPRCRPINATLAVEKEGCPVCITVNTTICAGYCPTMTRVLQGVLPALPQVVCNYRDVRFESIRLPGCPRGVNPVVSYAVALSCQCALCRRSTTDCGGPKDHPLTCDDPRFQDSSSSKAPPPSLPSPSRLPGPSDTPILPQ | 83 % of hCG | – | – | –
αN52C + hCGβ-S138C (ligand, mature; disulfide αCys52-βCys138; lacks the αAsn52 oligosaccharide) chain 1: not shown chain 2: SKEPLRPRCRPINATLAVEKEGCPVCITVNTTICAGYCPTMTRVLQGVLPALPQVVCNYRDVRFESIRLPGCPRGVNPVVSYAVALSCQCALCRRSTTDCGGPKDHPLTCDDPRFQDSSSSKAPPPSLPSPSRLPGPCDTPILPQ | – | – | 61 % of hCG | –
αV49C + β (ligand, mature; heterodimer from COS-7 medium; also called hCG-αV49C) chain 1: not shown chain 2: SKEPLRPRCRPINATLAVEKEGCPVCITVNTTICAGYCPTMTRVLQGVLPALPQVVCNYRDVRFESIRLPGCPRGVNPVVSYAVALSCQCALCRRSTTDCGGPKDHPLTCDDPRFQDSSSSKAPPPSLPSPSRLPGPSDTPILPQ | 70 % of hCG | 133 % of hCG | – | –
hCG-αK91M (ligand, mature; heterodimer from COS-7 medium; also called αK91M+hCGβ) chain 1: not shown chain 2: SKEPLRPRCRPINATLAVEKEGCPVCITVNTTICAGYCPTMTRVLQGVLPALPQVVCNYRDVRFESIRLPGCPRGVNPVVSYAVALSCQCALCRRSTTDCGGPKDHPLTCDDPRFQDSSSSKAPPPSLPSPSRLPGPSDTPILPQ | 68 % of hCG | 66 % of hCG | – | –
